The values that follow come from patent publication US20250313621A1 (NXERA PHARMA UK, published 2025).

For assay [1], the target named is T1, Human PAR2 StaR incorporated into nanodiscs (construct not stated) (human, UniProt P55085 37-377, limits assumed).
T1 construct: also called nanodisc-embedded StaR
T1 sequence: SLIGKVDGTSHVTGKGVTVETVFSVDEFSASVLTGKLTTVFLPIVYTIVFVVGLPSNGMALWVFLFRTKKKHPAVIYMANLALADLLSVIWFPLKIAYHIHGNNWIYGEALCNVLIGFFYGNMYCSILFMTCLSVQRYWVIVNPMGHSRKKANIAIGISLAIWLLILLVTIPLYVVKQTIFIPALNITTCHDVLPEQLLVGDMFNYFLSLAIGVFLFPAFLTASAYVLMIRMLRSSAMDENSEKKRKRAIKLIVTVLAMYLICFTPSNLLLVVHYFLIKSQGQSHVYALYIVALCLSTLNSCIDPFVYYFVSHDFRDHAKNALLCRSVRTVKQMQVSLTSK
The experiment in a line: SPR Biacore; human PAR2 StaR incorporated into nanodiscs.

Assay [2] concerns the target T2, Wildtype human PAR2 expressed on cells (human, UniProt P55085 37-397).
T2 construct: also called huPAR2; WT FL-huPAR2
T2 sequence: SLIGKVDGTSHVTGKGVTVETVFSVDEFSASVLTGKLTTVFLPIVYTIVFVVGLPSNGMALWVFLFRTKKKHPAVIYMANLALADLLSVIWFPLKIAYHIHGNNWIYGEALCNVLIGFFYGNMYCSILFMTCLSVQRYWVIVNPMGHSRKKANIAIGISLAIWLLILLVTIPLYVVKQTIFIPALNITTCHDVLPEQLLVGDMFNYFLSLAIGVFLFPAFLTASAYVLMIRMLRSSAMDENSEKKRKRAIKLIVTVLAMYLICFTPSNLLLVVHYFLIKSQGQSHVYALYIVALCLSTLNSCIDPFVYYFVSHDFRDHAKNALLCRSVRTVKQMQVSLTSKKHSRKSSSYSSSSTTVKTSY
The experiment in a line: KinExA, apparent KD; IgG titrated with BacMam infected HEK-293F cells expressing wild-type full-length human PAR2. As to the method:
(§1) For the determination of apparent KD using “native” PAR2 (i.e. PAR2 expressed at the cell surface) KinExA methodology was applied to evaluate a subset of lead clones, namely Y022870 and Y02283. […] The cells were titrated in incubation buffer (D-PBS from Gibco, 0.5% (w/v) BSA, 0.02% (v/v) Sodium azide). The experiment consisted of two titrations with a low and a high fixed IgG concentration. In both titration experiments (stoichiometry- and affinity-controlled conditions), the maximum amount of cells had to contain a high enough effective ligand concentration to completely saturate the IgG. The mixtures of IgG and cells were incubated at room temperature overnight under very gentle agitation to allow for equilibrium formation. Subsequently, the formed cell-antibody complex was removed by centrifugation. The free IgG amounts of the supernatants were determined with goat anti-human F(ab′)₂ fragment specific antibody (Jackson ImmunoResearch, #109-005-097) coated on PMMA (Polymethylmethacrylat) beads and fluorescence detection with anti-human F(ab′)₂ fragment specific Alexa Fluor 647 antibody (Jackson ImmunoResearch, #109-605-097). […] The recorded titration curves were analyzed with KinExA Pro software 4.1.11 using the n-curve analyse tool by applying the “Equilibrium, whole cell” model. […] Values are in line with SPR determined using PAR2 nanodiscs (210 and 140 pM, respectively).
On the technique in general: In KinExA the mixture passes briefly over coated beads that capture the unbound partner.

For assay [3], the target named is T2, Wildtype human PAR2 expressed on cells. Briefly: KinExA, whole cell equilibrium, HEK-293F cells expressing WT full-length human PAR2 titrated against two fixed IgG concentrations, apparent KD; sheet also prints Expression Level: 7.951e+006 receptors/cell, Error: 2.06 %. As to the method:
as §1

In assay [4] the target is T3, Cynomolgus PAR2 on BacMam-infected HEK293 cells (cynomolgus).
T3 construct: whole, on cells; also called cyno PAR-2; Cyno PAR2
Briefly: flow cytometry on HEK293F-cynoPAR2 (3.0E+06 cells/mL), S/BG. For orientation: A flow cytometer gives signals particle by particle.

Assay [5] has as its target T2, Wildtype human PAR2 expressed on cells. The experiment in a line: KinExA, whole cell equilibrium, HEK-293F cells expressing WT full-length human PAR2 titrated against two fixed IgG concentrations, apparent KD; sheet also prints Expression Level: 2.518e+006 receptors/cell, Error: 2.56 %. As to the method:
as §1

Residue numbers refer to the chain shown, from its start.

The term koff denotes the rate constant with which the complex falls apart. A word on the kon: it is the second-order rate constant of association. A high value points to faster complex formation. Usually EC50 (read off the curve) stands for the concentration giving half of the maximal effect. A lower EC50 (read off the curve) goes with an effect from little substance.

B1: Y022870 (antibody, human IgG1, lambda, V domains shown)
VH: EVQLLESGGGLVQPGGSLRLSCAASGFSFSRYAITWVRQAPGKGLEWVSTISALGLETYYAESVRGRFTISRDNSKNTLYLQMNSLRAEDTAVYYCARGFHYTHSGKRYYYPFDIWGQGTLVTVSS
VL: QSALTQPASVSGSPGQSITISCTGTSSDVGSYNLVSWYQQHPGKAPKLMIYEGSKRPSGVSNRFSGSKSGNTASLTISGLQAEDEADYYCSQYATFIAFAVFGGGTKLTVLG
notes: also called Y22870
In assay [1], B1 registered a Kd of 2.7 nM, a koff of 0.00025 s⁻¹ and a kon of 93000 M⁻¹ s⁻¹. In addition, the Kd in assay [2] is about 0.37 nM. In addition, the Kd in assay [3] was 0.373 nM.

B2: Y022877 (antibody, human IgG1, lambda, V domains shown)
VH: B1 VH with S28T, I34M, A53G, L56Q, T58A, E62G, R65K
VL: B1 VL
notes: also called Y22877
On to B2, for which, in assay [1], the Kd was found to be 2.8 nM, the koff amounted to 0.00021 s⁻¹ and the kon amounted to 73000 M⁻¹ s⁻¹. The “EC50 (read off the curve)” value in assay [4] was about 3 nM.

B3: Y022883 (antibody, human IgG1, lambda, V domains shown)
VH: B1 VH with S30T, T35S, T50V, A53G, L54H, L56S, T58A, Y59N, R65K
VL: B1 VL
notes: also called Y22883; Y02283
As for B3, the half-maximal effective concentration (EC50 (read off the curve)) in assay [4] was about 2 nM. The Kd in assay [2] is about 0.26 nM; in assay [5], 0.259 nM.
